Test results as given in PMC10742460, “Lambda CI Binding to Related Phage Operator Sequences Validates Alignment Algorithm and Highlights the Importance of Overlooked Bonds”.

B1: SOL3 (Stx2I OL3) (dsDNA)
DNA 1: GGTTATTATGGGCTTCTTGAATAACAGCTGCAAGTGC
DNA 2: GCACTTGCAGCTGTTATTCAAGAAGCCCATAATAACC
B2: VOL2 (VT2-SA OL2) (dsDNA)
DNA 1: GGTTATTATGGCAATACAATTTGTTCTATGCAAGTGC
DNA 2: GCACTTGCATAGAACAAATTGTATTGCCATAATAACC
B3: LOR1 (lambda OR1) (dsDNA)
DNA 1: GGTTATTATGGTACCTCTGGCGGTGATATGCAAGTGC
DNA 2: GCACTTGCATATCACCGCCAGAGGTACCATAATAACC
B4: SOL1 (Stx2I OL1) (dsDNA)
DNA 1: GGTTATTATGGCAATGATGATTTCATGCTGCAAGTGC
DNA 2: GCACTTGCAGCATGAAATCATCATTGCCATAATAACC
B5: SOR1 (Stx2I OR1) (dsDNA)
DNA 1: GGTTATTATGGTTTCAGTTCAACCATAATGCAAGTGC
DNA 2: GCACTTGCATTATGGTTGAACTGAAACCATAATAACC
B6: SOR2 (Stx2I OR2) (dsDNA)
DNA 1: GGTTATTATGGATGAGTACGATACTAAATGCAAGTGC
DNA 2: GCACTTGCATTTAGTATCGTACTCATCCATAATAACC
B7: VOR3 (VT2-SA OR3) (dsDNA)
DNA 1: GGTTATTATGGTATTACGCTCTGTACTGTGCAAGTGC
DNA 2: GCACTTGCACAGTACAGAGCGTAATACCATAATAACC
B8: VOL1 (VT2-SA OL1) (dsDNA)
DNA 1: GGTTATTATGGTAGTACGATATGTACTTTGCAAGTGC
DNA 2: GCACTTGCAAAGTACATATCGTACTACCATAATAACC
B9: LOL3 (lambda OL3) (dsDNA)
DNA 1: GGTTATTATGGTATCACCGCAGATGGTTTGCAAGTGC
DNA 2: GCACTTGCAAACCATCTGCGGTGATACCATAATAACC
B10: VOL3 (VT2-SA OL3) (dsDNA)
DNA 1: GGTTATTATGGTACAACGCTTTGTATTTTGCAAGTGC
DNA 2: GCACTTGCAAAATACAAAGCGTTGTACCATAATAACC
B11: VOR2 (VT2-SA OR2) (dsDNA)
DNA 1: GGTTATTATGGATGCACAATGTGTATTTTGCAAGTGC
DNA 2: GCACTTGCAAAATACACATTGTGCATCCATAATAACC
B12: LOR2 (lambda OR2) (dsDNA)
DNA 1: GGTTATTATGGTAACACCGTGCGTGTTGTGCAAGTGC
DNA 2: GCACTTGCACAACACGCACGGTGTTACCATAATAACC
B13: LOR3 (lambda OR3) (dsDNA)
DNA 1: GGTTATTATGGTATCACCGCAAGGGATATGCAAGTGC
DNA 2: GCACTTGCATATCCCTTGCGGTGATACCATAATAACC
B14: LOL1 (lambda OL1) (dsDNA)
DNA 1: GGTTATTATGGTATCACCGCCAGTGGTATGCAAGTGC
DNA 2: GCACTTGCATACCACTGGCGGTGATACCATAATAACC
B15: LOL2 (lambda OL2) (dsDNA)
DNA 1: GGTTATTATGGCAACACCGCCAGAGATATGCAAGTGC
DNA 2: GCACTTGCATATCTCTGGCGGTGTTGCCATAATAACC
B16: SOL2 (Stx2I OL2) (dsDNA)
DNA 1: GGTTATTATGGTGTAATATTTTCTTACATGCAAGTGC
DNA 2: GCACTTGCATGTAAGAAAATATTACACCATAATAACC
B17: VOR1 (VT2-SA OR1) (dsDNA)
DNA 1: GGTTATTATGGAAGTACATATTGTATTTTGCAAGTGC
DNA 2: GCACTTGCAAAATACAATATGTACTTCCATAATAACC
B18: SOR3 (Stx2I OR3) (dsDNA)
DNA 1: GGTTATTATGGGGGCGAATTCTTTGCGCTGCAAGTGC
DNA 2: GCACTTGCAGCGCAAAGAATTCGCCCCCATAATAACC

These binders were tested against T1, lambda CI repressor (Bacteriophage lambda, UniProt P03034 1-237) (assay: EMSA; apparent Kd; EMSA: 10 mM HEPES, 150 mM NaCl, pH 7.4; 50 nM DNA, 0.4-40 uM CI; 20 min at room temperature; 10% polyacrylamide gel, 1x TBE pH 8.3, SYBR Safe stain). Conditions: protein: recombinant; tags: His-tag, TEV cleavage site with linker (pET 29b+); chain copies: 2; label: none (SYBR Safe stain).
T1 sequence (P03034 whole entry): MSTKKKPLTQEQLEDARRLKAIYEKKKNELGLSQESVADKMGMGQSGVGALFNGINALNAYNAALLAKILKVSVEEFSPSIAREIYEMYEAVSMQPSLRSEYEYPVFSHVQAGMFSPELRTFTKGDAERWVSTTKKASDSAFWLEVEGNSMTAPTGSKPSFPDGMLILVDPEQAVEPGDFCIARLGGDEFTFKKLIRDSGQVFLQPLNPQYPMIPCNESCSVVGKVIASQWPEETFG

B1 and B2 are within error of each other in Kd: 4.26 ± 0.27 µM for the first, 4.02 ± 0.16 µM for the second.

Compared with B3, B4 is 20-fold higher in Kd: 0.35 ± 0.03 µM for the first, 7.11 ± 1.27 µM for the second.

B5 and B6 are within error of each other in Kd: 7.27 ± 2.39 µM for the first, 7.67 ± 2.62 µM for the second.

B7 and B8 are within error of each other in Kd: 4.41 ± 0.99 µM for the first, 5.37 ± 1.16 µM for the second.

Compared with B9, B10 is 3-fold higher in Kd: 1.21 ± 0.08 µM for the first, 3.67 ± 0.1 µM for the second. The first binds more tightly here.

First: B11
Second: B12
The Kd of the first is 4.1-fold higher: 6.39 ± 2.75 µM for the first, 1.55 ± 0.29 µM for the second.

Compared with B13, B14 is 15-fold lower in Kd: 3.07 ± 1.13 µM for the first, 0.21 ± 0.02 µM for the second. The second binds more tightly here.

Compared with B15, B16 is 2.5-fold higher in Kd: 1.5 ± 0.17 µM for the first, 3.68 ± 0.47 µM for the second.

In the case of B17, the Kd is reported as 5.15 ± 2.39 µM.

The binders below were run against T1, lambda CI repressor (assay: EMSA; apparent Kd; text gives error 3.10; EMSA: 10 mM HEPES, 150 mM NaCl, pH 7.4; 50 nM DNA, 0.4-40 uM CI; 20 min at room temperature; 10% polyacrylamide gel, 1x TBE pH 8.3, SYBR Safe stain). Conditions: protein: recombinant; tags: His-tag, TEV cleavage site with linker (pET 29b+); chain copies: 2; label: none (SYBR Safe stain).

B18 gave a Kd of 7.68 ± 3.09 µM.
